Experimental findings from patent US6025480 are described below.

Test [1] deals with cyclin E-cdk2 (baculovirally coexpressed cyclin E and cdk2-HA).
Test [2] deals with cyclin A-cdk2 (baculovirally coexpressed cyclin A and cdk2-HA).

“flag-p57 (mouse p57^KIP2 tagged at the N-terminus with the flag epitope)”: the half-maximal inhibition of histone H1 kinase activity in test [1] and in test [2] was 0.5 nM each time.
